In article PMC7015683 one finds percent reduction of binding against WT IGF2 data, which are given here for three substances.

The assay addresses insulin-like growth factor 2 receptor (IGF2R), native full-length, from bovine liver (bovine) (UniProt P08169). The assay is described as follows: pull-down.
Sequence of UniProt P08169 (P08169 45-2499): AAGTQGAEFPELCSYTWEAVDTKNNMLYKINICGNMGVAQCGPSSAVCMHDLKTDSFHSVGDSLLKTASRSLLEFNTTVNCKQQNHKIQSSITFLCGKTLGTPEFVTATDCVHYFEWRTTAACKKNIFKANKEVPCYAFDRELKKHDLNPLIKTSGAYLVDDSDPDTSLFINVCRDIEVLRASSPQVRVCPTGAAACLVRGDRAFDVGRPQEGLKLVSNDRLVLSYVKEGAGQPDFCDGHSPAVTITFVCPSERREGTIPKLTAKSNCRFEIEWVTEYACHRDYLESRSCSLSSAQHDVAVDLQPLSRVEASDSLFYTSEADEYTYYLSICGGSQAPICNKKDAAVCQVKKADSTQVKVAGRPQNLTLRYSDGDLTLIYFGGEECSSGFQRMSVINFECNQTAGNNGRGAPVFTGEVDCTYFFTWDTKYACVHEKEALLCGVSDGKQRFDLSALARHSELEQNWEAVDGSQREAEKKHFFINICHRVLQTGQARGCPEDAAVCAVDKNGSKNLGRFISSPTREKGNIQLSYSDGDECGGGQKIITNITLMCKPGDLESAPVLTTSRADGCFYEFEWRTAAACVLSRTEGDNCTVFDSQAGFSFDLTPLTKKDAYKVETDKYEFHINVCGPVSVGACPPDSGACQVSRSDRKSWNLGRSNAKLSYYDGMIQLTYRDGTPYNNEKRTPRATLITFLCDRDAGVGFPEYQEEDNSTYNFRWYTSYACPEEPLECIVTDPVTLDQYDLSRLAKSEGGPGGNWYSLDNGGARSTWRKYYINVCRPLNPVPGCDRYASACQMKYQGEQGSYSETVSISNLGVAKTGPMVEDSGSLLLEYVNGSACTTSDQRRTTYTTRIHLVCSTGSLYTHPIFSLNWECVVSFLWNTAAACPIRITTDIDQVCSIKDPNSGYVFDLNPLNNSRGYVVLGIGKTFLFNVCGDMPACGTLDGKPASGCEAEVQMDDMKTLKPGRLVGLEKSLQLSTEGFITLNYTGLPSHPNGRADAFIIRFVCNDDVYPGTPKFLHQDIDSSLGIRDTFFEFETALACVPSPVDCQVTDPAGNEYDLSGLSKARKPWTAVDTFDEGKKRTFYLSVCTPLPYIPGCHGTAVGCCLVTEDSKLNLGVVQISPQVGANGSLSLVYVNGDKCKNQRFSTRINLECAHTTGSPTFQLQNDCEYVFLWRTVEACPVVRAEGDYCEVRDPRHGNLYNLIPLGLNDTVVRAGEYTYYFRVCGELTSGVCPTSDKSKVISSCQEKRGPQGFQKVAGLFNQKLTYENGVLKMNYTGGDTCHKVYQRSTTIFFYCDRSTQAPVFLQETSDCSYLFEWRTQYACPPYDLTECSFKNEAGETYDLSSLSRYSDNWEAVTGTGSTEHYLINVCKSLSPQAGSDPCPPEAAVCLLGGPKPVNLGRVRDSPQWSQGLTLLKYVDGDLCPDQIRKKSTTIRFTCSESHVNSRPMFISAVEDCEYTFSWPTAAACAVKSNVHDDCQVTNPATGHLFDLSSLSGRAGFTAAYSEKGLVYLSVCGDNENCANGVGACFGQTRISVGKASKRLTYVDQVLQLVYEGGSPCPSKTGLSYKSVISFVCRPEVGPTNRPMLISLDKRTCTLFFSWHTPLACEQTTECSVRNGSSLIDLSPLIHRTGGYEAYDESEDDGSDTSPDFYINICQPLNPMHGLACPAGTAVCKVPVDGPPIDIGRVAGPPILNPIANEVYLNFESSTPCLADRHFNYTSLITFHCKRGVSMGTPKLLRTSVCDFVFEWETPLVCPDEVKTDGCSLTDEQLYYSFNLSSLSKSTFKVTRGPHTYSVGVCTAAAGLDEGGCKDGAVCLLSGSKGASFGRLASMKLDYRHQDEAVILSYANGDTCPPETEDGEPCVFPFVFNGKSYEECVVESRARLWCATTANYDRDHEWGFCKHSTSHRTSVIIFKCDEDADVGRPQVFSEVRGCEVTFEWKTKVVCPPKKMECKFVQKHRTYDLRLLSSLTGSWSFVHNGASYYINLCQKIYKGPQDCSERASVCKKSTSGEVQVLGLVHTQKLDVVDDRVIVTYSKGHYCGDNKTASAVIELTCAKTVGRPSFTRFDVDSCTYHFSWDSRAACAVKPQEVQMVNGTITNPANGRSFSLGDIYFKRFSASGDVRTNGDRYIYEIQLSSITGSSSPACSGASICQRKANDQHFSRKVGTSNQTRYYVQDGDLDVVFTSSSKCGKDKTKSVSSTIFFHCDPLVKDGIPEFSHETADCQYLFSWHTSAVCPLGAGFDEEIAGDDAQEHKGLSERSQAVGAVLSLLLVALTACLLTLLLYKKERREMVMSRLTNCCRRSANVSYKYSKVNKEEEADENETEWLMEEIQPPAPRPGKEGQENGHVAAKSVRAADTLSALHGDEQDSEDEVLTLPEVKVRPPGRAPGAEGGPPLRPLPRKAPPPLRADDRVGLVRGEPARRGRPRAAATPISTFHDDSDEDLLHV
Substance “Flag-IGF2 F28A V43D double mutant (ligand)” came in with a percent reduction of binding against WT IGF2 of 20 to 30%. In the case of Flag-IGF2 F48D mutant (ligand) it was 20 to 30%; in that of Flag-IGF2 L53D mutant (ligand), above 60%.
